US20100273979A1

Experiments:
[1] = target: human serum albumin (human), P02768; assay: SPR (Biacore2000), HSA immobilised (450 RU), analyte 4-400 nM
[2] = target: human serum albumin (human), P02768; assay: SPR (Biacore2000), HSA immobilised on CM-5, analyte injected at 25 nM; qualitative
[3] = target: mouse serum albumin (mouse), P07724; assay: SPR (Biacore2000), MSA immobilised on CM-5, analyte injected at 25 nM; qualitative
Sequence of mouse serum albumin (mouse), P07724 (P07724 25-608 limits assumed): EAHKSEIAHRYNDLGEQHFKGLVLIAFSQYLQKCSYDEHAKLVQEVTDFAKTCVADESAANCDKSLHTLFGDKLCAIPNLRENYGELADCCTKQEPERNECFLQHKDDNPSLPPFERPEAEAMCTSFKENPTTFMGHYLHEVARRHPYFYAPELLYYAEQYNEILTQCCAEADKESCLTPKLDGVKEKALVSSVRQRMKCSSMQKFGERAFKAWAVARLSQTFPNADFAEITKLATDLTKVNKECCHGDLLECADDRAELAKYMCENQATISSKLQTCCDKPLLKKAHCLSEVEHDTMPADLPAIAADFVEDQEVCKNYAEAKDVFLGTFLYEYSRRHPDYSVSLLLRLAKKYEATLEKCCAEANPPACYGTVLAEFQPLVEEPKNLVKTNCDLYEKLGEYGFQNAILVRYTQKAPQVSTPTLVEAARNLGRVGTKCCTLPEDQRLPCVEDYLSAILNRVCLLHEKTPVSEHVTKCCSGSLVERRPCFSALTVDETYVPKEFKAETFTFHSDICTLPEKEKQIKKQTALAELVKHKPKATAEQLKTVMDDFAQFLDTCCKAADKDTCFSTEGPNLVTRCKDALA

B1: His6-tagged ABDwt (albumin binding domain GA3 of protein G from Streptococcus strain G148, expressed from pAY442) (peptide)
chain: LAEAKVLANRELDKYGVSDYYKNLINNAKTVEGVKALIDEILAALP
modifications: not checked
Kd [1]: 1.2 nM | koff [1]: 0.00065 s⁻¹ | kon [1]: 550000 M⁻¹ s⁻¹ | Kd [2]: 1.5 nM | Kd [3]: 4.9 nM
